Data published in patent publication US20210032291A1, “Compstatin Analogs With Improved Pharmacokinetic Properties” (The Trustees of the University of Pennsylvania, priority 2011, published 2021).

Molecular target: C3b (biotinylated, captured site-specifically on a streptavidin chip) (UniProt P01024)
Assay: SPR (Biacore 3000), single-cycle kinetics, biotinylated C3b on streptavidin chip, peptide as analyte, 1:1 Langmuir fit

Substance | koff [s⁻¹] | kon [M⁻¹ s⁻¹] | Kd [nM]
Peptide 9: Tyr(Me)-Ile-[Cys-Val-Trp(Me)-Gln-Asp-Trp-Sar-Ala-His-Arg-Cys]-mIle-NH2 | 0.0026 | 2.3e+06 | 
Peptide 15: D-Phe-Ile-[Cys-Val-Trp(Me)-Gln-Asp-Trp-Sar-Ala-His-Arg-Cys]-mIle-NH2 | 0.0026 | 2.3e+06 | 1.1
Peptide 16: D-Trp-Ile-[Cys-Val-Trp(Me)-Gln-Asp-Trp-Sar-Ala-His-Arg-Cys]-mIle-NH2 | 0.0024 | 2e+06 | 1.2
Peptide 17: D-Cha-Ile-[Cys-Val-Trp(Me)-Gln-Asp-Trp-Sar-Ala-His-Arg-Cys]-mIle-NH2 | 0.0027 | 1.8e+06 | 1.5
Peptide 18: D-Ala-Ile-[Cys-Val-Trp(Me)-Gln-Asp-Trp-Sar-Ala-His-Arg-Cys]-mIle-NH2 | 0.0034 | 1.4e+06 | 2.5
